For this test, the target named is soluble human FcRn (human) (UniProt P55899). In words: SPR.
Sequence of UniProt P55899 (P55899 24-297, chain 1 of 2): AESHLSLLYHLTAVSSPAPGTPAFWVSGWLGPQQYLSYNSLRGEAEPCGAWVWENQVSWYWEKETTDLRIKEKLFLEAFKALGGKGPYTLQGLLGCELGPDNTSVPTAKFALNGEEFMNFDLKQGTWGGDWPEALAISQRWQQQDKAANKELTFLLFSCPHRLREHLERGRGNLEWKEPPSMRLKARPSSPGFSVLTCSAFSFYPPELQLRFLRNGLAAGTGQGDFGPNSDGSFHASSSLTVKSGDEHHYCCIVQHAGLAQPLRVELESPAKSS
Sequence of UniProt P55899 (P61769 21-119, chain 2 of 2, further chain): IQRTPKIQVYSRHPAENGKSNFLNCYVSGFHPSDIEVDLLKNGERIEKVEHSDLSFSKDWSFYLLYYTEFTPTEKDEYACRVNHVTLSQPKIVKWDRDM

recombinant human IgG1–H435R (antibody) had a KD relative to WT IgG1 (% higher than the KD of WT IgG1) of 50.

“recombinant human IgG3 (anti-Streptococcus pneumoniae serotype 6) (antibody)” returned a KD relative to WT IgG1 (fold of the KD of WT IgG1) of 2.

The values above are taken from article PMC3247843.
